Laboratory results from US20110014241A1.

Biological target: H-2K^b class I-determinants expressed on LM fibroblasts transduced with pBR327H-2K^b (mouse) (UniProt P01901)
Test: flow cytometry staining of LM cells transduced with pBR327H-2K^b, control staining

UniProt P01901, sequence (P01901 22-369): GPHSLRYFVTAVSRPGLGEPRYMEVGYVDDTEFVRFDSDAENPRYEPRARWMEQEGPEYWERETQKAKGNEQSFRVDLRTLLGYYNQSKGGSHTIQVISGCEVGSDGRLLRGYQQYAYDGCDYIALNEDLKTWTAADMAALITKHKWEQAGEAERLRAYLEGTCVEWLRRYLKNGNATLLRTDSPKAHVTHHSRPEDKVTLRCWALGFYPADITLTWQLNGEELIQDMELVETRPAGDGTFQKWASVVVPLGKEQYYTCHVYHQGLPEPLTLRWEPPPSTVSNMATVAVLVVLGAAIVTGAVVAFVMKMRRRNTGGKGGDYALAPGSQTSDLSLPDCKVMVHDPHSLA

mean fluorescence index (MFI): 0.3
Substance: isotope control sera (antibody)
